Data published in patent US20230236179A1.
Each block holds one substance with its values, some of them ahead of it.

How the values were obtained:
[1] = target: human Brachyury protein standard (Abcam ab114235) (human) (UniProt O15178); assay: conventional Simoa sandwich (capture beads + detector m8), 150 pM SβG/5 min; Brachyury at 6 fM
[2] = target: human Brachyury protein standard (Abcam ab114235) (human) (UniProt O15178); assay: conventional Simoa sandwich (capture beads + detector m8), 150 pM SβG/5 min; Brachyury at 30 fM
[3] = target: human Brachyury protein standard (Abcam ab114235) (human) (UniProt O15178); assay: conventional Simoa sandwich (capture beads + detector m8), 300 pM SβG/15 min; Brachyury at 6 fM
[4] = target: human Brachyury protein standard (Abcam ab114235) (human) (UniProt O15178); assay: conventional Simoa sandwich (capture beads + detector m8), 150 pM SβG/5 min; Brachyury at 1.2 fM
[5] = target: human Brachyury protein standard (Abcam ab114235) (human) (UniProt O15178); assay: conventional Simoa sandwich (capture beads + detector m8), 150 pM SβG/5 min; Brachyury at 150 fM
[6] = target: human Brachyury protein standard (Abcam ab114235) (human) (UniProt O15178); assay: conventional Simoa sandwich (capture beads + detector m8), 300 pM SβG/15 min; Brachyury at 30 fM
[7] = target: human Brachyury protein standard (Abcam ab114235) (human) (UniProt O15178); assay: dSimoa sandwich (capture beads + detector m8), 300 pM streptavidin-DNA/15 min; Brachyury at 6 fM
[8] = target: human Brachyury protein standard (Abcam ab114235) (human) (UniProt O15178); assay: conventional Simoa sandwich (capture beads + detector m8), 150 pM SβG/5 min; Brachyury at 0.24 fM
[9] = target: human Brachyury protein standard (Abcam ab114235) (human) (UniProt O15178); assay: conventional Simoa sandwich (capture beads + detector m8), 150 pM SβG/5 min; Brachyury at 1500 fM
[10] = target: human Brachyury protein standard (Abcam ab114235) (human) (UniProt O15178); assay: conventional Simoa sandwich (capture beads + detector m8), 300 pM SβG/15 min; Brachyury at 1.2 fM
[11] = target: human Brachyury protein standard (Abcam ab114235) (human) (UniProt O15178); assay: conventional Simoa sandwich (capture beads + detector m8), 300 pM SβG/15 min; Brachyury at 150 fM
[12] = target: human Brachyury protein standard (Abcam ab114235) (human) (UniProt O15178); assay: dSimoa sandwich (capture beads + detector m8), 300 pM streptavidin-DNA/15 min; Brachyury at 30 fM
[13] = target: human Brachyury protein standard (Abcam ab114235) (human) (UniProt O15178); assay: conventional Simoa sandwich (capture beads + detector m8), 150 pM SβG/5 min; Brachyury at 0.048 fM
[14] = target: human Brachyury protein standard (Abcam ab114235) (human) (UniProt O15178); assay: conventional Simoa sandwich (capture beads + detector m8), 300 pM SβG/15 min; Brachyury at 0.24 fM
[15] = target: human Brachyury protein standard (Abcam ab114235) (human) (UniProt O15178); assay: conventional Simoa sandwich (capture beads + detector m8), 300 pM SβG/15 min; Brachyury at 1500 fM
[16] = target: human Brachyury protein standard (Abcam ab114235) (human) (UniProt O15178); assay: dSimoa sandwich (capture beads + detector m8), 300 pM streptavidin-DNA/15 min; Brachyury at 1.2 fM
[17] = target: human Brachyury protein standard (Abcam ab114235) (human) (UniProt O15178); assay: dSimoa sandwich (capture beads + detector m8), 300 pM streptavidin-DNA/15 min; Brachyury at 150 fM
[18] = target: human Brachyury protein standard (Abcam ab114235) (human) (UniProt O15178); assay: conventional Simoa sandwich (capture beads + detector m8), 300 pM SβG/15 min; Brachyury at 0.048 fM
[19] = target: human Brachyury protein standard (Abcam ab114235) (human) (UniProt O15178); assay: dSimoa sandwich (capture beads + detector m8), 300 pM streptavidin-DNA/15 min; Brachyury at 0.24 fM
[20] = target: human Brachyury protein standard (Abcam ab114235) (human) (UniProt O15178); assay: dSimoa sandwich (capture beads + detector m8), 300 pM streptavidin-DNA/15 min; Brachyury at 0.048 fM
[21] = target: human interleukin-10 (IL-10) protein standard (printed as Biolegend 501501) (human) (UniProt P22301); assay: conventional Simoa sandwich (capture beads + detector m5), 150 pM SβG/5 min; IL-10 at 3 fM
[22] = target: human interleukin-10 (IL-10) protein standard (printed as Biolegend 501501) (human) (UniProt P22301); assay: conventional Simoa sandwich (capture beads + detector m5), 150 pM SβG/15 min; IL-10 at 3 fM
[23] = target: human interleukin-10 (IL-10) protein standard (printed as Biolegend 501501) (human) (UniProt P22301); assay: conventional Simoa sandwich (capture beads + detector m5), 150 pM SβG/5 min; IL-10 at 15 fM
[24] = target: human interleukin-10 (IL-10) protein standard (printed as Biolegend 501501) (human) (UniProt P22301); assay: conventional Simoa sandwich (capture beads + detector m5), 150 pM SβG/5 min; IL-10 at 75 fM
[25] = target: human interleukin-10 (IL-10) protein standard (printed as Biolegend 501501) (human) (UniProt P22301); assay: conventional Simoa sandwich (capture beads + detector m5), 150 pM SβG/15 min; IL-10 at 15 fM
[26] = target: human interleukin-10 (IL-10) protein standard (printed as Biolegend 501501) (human) (UniProt P22301); assay: conventional Simoa sandwich (capture beads + detector m5), 150 pM SβG/15 min; IL-10 at 75 fM
[27] = target: human interleukin-10 (IL-10) protein standard (printed as Biolegend 501501) (human) (UniProt P22301); assay: conventional Simoa sandwich (capture beads + detector m5), 150 pM SβG/5 min; IL-10 at 0.6 fM
[28] = target: human interleukin-10 (IL-10) protein standard (printed as Biolegend 501501) (human) (UniProt P22301); assay: dSimoa sandwich (capture beads + detector m5), 150 pM streptavidin-DNA/15 min; IL-10 at 3 fM
[29] = target: human interleukin-10 (IL-10) protein standard (printed as Biolegend 501501) (human) (UniProt P22301); assay: conventional Simoa sandwich (capture beads + detector m5), 150 pM SβG/15 min; IL-10 at 0.6 fM
[30] = target: human interleukin-10 (IL-10) protein standard (printed as Biolegend 501501) (human) (UniProt P22301); assay: conventional Simoa sandwich (capture beads + detector m5), 150 pM SβG/5 min; IL-10 at 0.12 fM
[31] = target: human interleukin-10 (IL-10) protein standard (printed as Biolegend 501501) (human) (UniProt P22301); assay: dSimoa sandwich (capture beads + detector m5), 150 pM streptavidin-DNA/15 min; IL-10 at 15 fM
[32] = target: human interleukin-10 (IL-10) protein standard (printed as Biolegend 501501) (human) (UniProt P22301); assay: conventional Simoa sandwich (capture beads + detector m5), 150 pM SβG/15 min; IL-10 at 0.12 fM
[33] = target: human interleukin-10 (IL-10) protein standard (printed as Biolegend 501501) (human) (UniProt P22301); assay: conventional Simoa sandwich (capture beads + detector m5), 150 pM SβG/5 min; IL-10 at 0.024 fM
[34] = target: human interleukin-10 (IL-10) protein standard (printed as Biolegend 501501) (human) (UniProt P22301); assay: dSimoa sandwich (capture beads + detector m5), 150 pM streptavidin-DNA/15 min; IL-10 at 0.6 fM
[35] = target: human interleukin-10 (IL-10) protein standard (printed as Biolegend 501501) (human) (UniProt P22301); assay: conventional Simoa sandwich (capture beads + detector m5), 150 pM SβG/15 min; IL-10 at 0.024 fM
[36] = target: human interleukin-10 (IL-10) protein standard (printed as Biolegend 501501) (human) (UniProt P22301); assay: conventional Simoa sandwich (capture beads + detector m5), 150 pM SβG/5 min; IL-10 at 0.0048 fM
[37] = target: human interleukin-10 (IL-10) protein standard (printed as Biolegend 501501) (human) (UniProt P22301); assay: dSimoa sandwich (capture beads + detector m5), 150 pM streptavidin-DNA/15 min; IL-10 at 0.12 fM
[38] = target: human interleukin-10 (IL-10) protein standard (printed as Biolegend 501501) (human) (UniProt P22301); assay: conventional Simoa sandwich (capture beads + detector m5), 150 pM SβG/15 min; IL-10 at 0.0048 fM
[39] = target: human interleukin-10 (IL-10) protein standard (printed as Biolegend 501501) (human) (UniProt P22301); assay: dSimoa sandwich (capture beads + detector m5), 150 pM streptavidin-DNA/15 min; IL-10 at 0.024 fM
[40] = target: human interleukin-10 (IL-10) protein standard (printed as Biolegend 501501) (human) (UniProt P22301); assay: dSimoa sandwich (capture beads + detector m5), 150 pM streptavidin-DNA/15 min; IL-10 at 0.0048 fM
[41] = target: human interleukin-10 (IL-10) protein standard (printed as Biolegend 501501) (human) (UniProt P22301); assay: dSimoa sandwich (capture beads + detector m5), 150 pM streptavidin-DNA/15 min; IL-10 at 0.00096 fM
[42] = target: IL-6 protein standard (R&D Systems 206-IL-010) (UniProt P05231); assay: conventional Simoa sandwich on HD-1 (capture beads + detection antibody m11, SβG); IL-6 at 1 fM
[43] = target: IL-6 protein standard (R&D Systems 206-IL-010) (UniProt P05231); assay: conventional Simoa sandwich on HD-1 (capture beads + detection antibody m11, SβG); IL-6 at 10 fM
[44] = target: IL-6 protein standard (R&D Systems 206-IL-010) (UniProt P05231); assay: conventional Simoa sandwich on HD-1 (capture beads + detection antibody m11, SβG); IL-6 at 50 fM
[45] = target: IL-6 protein standard (R&D Systems 206-IL-010) (UniProt P05231); assay: conventional Simoa sandwich on HD-1 (capture beads + detection antibody m11, SβG); IL-6 at 0.1 fM
[46] = target: IL-6 protein standard (R&D Systems 206-IL-010) (UniProt P05231); assay: conventional Simoa sandwich on HD-1 (capture beads + detection antibody m11, SβG); IL-6 at 0.5 fM
[47] = target: IL-6 protein standard (R&D Systems 206-IL-010) (UniProt P05231); assay: conventional Simoa sandwich on HD-1 (capture beads + detection antibody m11, SβG); IL-6 at 100 fM
[48] = target: IL-6 protein standard (R&D Systems 206-IL-010) (UniProt P05231); assay: CARD-dELISA sandwich (capture beads + detection antibody m11, streptavidin-poly-HRP, tyramide); IL-6 at 1 fM
[49] = target: IL-6 protein standard (R&D Systems 206-IL-010) (UniProt P05231); assay: CARD-dELISA sandwich (capture beads + detection antibody m11, streptavidin-poly-HRP, tyramide); IL-6 at 10 fM
[50] = target: IL-6 protein standard (R&D Systems 206-IL-010) (UniProt P05231); assay: CARD-dELISA sandwich (capture beads + detection antibody m11, streptavidin-poly-HRP, tyramide); IL-6 at 50 fM
[51] = target: IL-6 protein standard (R&D Systems 206-IL-010) (UniProt P05231); assay: CARD-dELISA sandwich (capture beads + detection antibody m11, streptavidin-poly-HRP, tyramide); IL-6 at 0.1 fM
[52] = target: IL-6 protein standard (R&D Systems 206-IL-010) (UniProt P05231); assay: CARD-dELISA sandwich (capture beads + detection antibody m11, streptavidin-poly-HRP, tyramide); IL-6 at 0.5 fM
[53] = target: IL-6 protein standard (R&D Systems 206-IL-010) (UniProt P05231); assay: CARD-dELISA sandwich (capture beads + detection antibody m11, streptavidin-poly-HRP, tyramide); IL-6 at 100 fM

Chain of UniProt P22301 (P22301 19-178 limits assumed): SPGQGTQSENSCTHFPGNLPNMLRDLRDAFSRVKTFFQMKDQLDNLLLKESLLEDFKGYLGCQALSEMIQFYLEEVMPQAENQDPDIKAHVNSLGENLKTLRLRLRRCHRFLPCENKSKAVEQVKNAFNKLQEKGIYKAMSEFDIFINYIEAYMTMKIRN
Chain of UniProt O15178 (O15178 whole entry): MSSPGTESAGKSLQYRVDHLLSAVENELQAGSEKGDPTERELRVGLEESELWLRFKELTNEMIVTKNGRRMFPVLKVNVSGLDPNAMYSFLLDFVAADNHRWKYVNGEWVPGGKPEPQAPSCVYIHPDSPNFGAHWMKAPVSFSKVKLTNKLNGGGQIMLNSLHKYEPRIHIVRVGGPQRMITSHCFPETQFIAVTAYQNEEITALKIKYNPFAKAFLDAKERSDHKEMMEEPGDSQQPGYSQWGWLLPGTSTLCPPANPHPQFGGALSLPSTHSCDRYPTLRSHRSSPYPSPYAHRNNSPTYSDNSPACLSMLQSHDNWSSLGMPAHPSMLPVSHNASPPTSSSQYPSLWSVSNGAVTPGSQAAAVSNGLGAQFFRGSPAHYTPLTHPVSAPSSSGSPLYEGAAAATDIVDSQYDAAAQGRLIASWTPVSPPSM
Chain of UniProt P05231 (P05231 30-212 limits assumed): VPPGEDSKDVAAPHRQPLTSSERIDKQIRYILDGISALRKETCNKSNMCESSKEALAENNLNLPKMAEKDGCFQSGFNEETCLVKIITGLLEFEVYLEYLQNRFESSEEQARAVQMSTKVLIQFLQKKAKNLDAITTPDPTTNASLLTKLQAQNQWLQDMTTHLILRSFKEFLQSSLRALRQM

average AEB [1]: 0.0425 AEB | average AEB [2]: 0.156 AEB | average AEB [3]: 0.105 AEB | average AEB [4]: 0.0174 AEB | average AEB [5]: 0.677 AEB | average AEB [6]: 0.358 AEB | average AMB [7]: 0.0417 AMB | average AEB [8]: 0.012 AEB | average AEB [9]: 5.97 AEB | average AEB [10]: 0.0494 AEB | average AEB [11]: 1.77 AEB | average AMB [12]: 0.156 AMB | average AEB [13]: 0.0108 AEB | average AEB [14]: 0.0395 AEB | average AEB [15]: 14.3 AEB | average AMB [16]: 0.0173 AMB | average AMB [17]: 0.825 AMB | average AEB [18]: 0.0398 AEB | average AMB [19]: 0.0147 AMB | average AMB [20]: 0.0127 AMB
Substance: Brachyury capture antibody (Abcam ab236023)

average AEB [21]: 0.0765 AEB | average AEB [22]: 0.107 AEB | average AEB [23]: 0.306 AEB | average AEB [24]: 1.41 AEB | average AEB [25]: 0.386 AEB | average AEB [26]: 2.05 AEB | average AEB [27]: 0.0296 AEB | average AMB [28]: 0.121 AMB | average AEB [29]: 0.05 AEB | average AEB [30]: 0.0208 AEB | average AMB [31]: 0.561 AMB | average AEB [32]: 0.0395 AEB | average AEB [33]: 0.0218 AEB | average AMB [34]: 0.0281 AMB | average AEB [35]: 0.0439 AEB | average AEB [36]: 0.0194 AEB | average AMB [37]: 0.0097 AMB | average AEB [38]: 0.0355 AEB | average AMB [39]: 0.0058 AMB | average AMB [40]: 0.0042 AMB | average AMB [41]: 0.0045 AMB
Substance: IL-10 capture antibody (Biolegend 506802)

average AEB [42]: 0.0151 AEB | average AEB [43]: 0.111 AEB | average AEB [44]: 0.522 AEB | average AEB [45]: 0.005 AEB | average AEB [46]: 0.0098 AEB | average AEB [47]: 1.03 AEB | average AEB [48]: 0.0058 AEB | average AEB [49]: 0.0151 AEB | average AEB [50]: 0.0937 AEB | average AEB [51]: 0.0031 AEB | average AEB [52]: 0.005 AEB | average AEB [53]: 0.171 AEB
Substance: IL-6 capture antibody (R&D Systems MAB206)
